The subject of this series is K4 kissing-loop RNA reporter. Description: apparent KD of K4 kissing-loop reporter; higher = weaker reporter binding. The following applies: Eterna round: R107. On the procedure: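 RNA-MaP round R107: designed RNA switches with theophylline, tryptophan, arginine or FMN aptamers are transcribed on-chip within common flanks. They are titrated with a labelled K4 kissing-loop RNA reporter in RNA-MaP buffer (100 mM Tris pH 7.5, 80 mM KCl, 4 mM MgCl2), without ligand or with the indicated ligand. Median apparent KD per design.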

The mark [1] stands for this setting: input ligand: theophylline 20 uM.
The mark [2] stands for this setting: input ligand: tryptophan 2.4 mM.
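Note: bound reporter read as fluorescence of individual clusters on recovered sequencing chips by microscopy, with normalized cluster intensities fitted with a binding model.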

In the case of “CUCUAGGCGCUCGCGUGAGUGAUGUUUACGCGAGGACCGGUACGGCCGCCACUCGCAGACUGGGUGUAAGCGGAGCUGUAUGCCC [theeternabot_exclusion_KL_Trp_A_12]”, the “apparent KD of K4 kissing-loop reporter” value by setting is: (input ligand: FMN 200 uM) 277 nM; (input ligand: arginine 13.2 mM) 158 nM; (input ligand: none) 212 nM; under setting [1], 174 nM; under setting [2], 223 nM.

For the sequence “CUUGGAAGGACGGCCGCCACUCGACAGUGAUGUUGUCCGAGUGGGUAGCGCAGUGAUGUUGUGUCGAGGACCGGGUCCUAGGAAU [Exclusion Tryptophan B GF 27]”, the “apparent KD of K4 kissing-loop reporter” value reads like this: (input ligand: FMN 200 uM) 185 nM; (input ligand: arginine 13.2 mM) 149 nM; (input ligand: none) 170 nM; under setting [1], 155 nM; under setting [2], 137 nM.

With “CUUGGAAGGACGGCCGCCACUCGACGGAGUGAUGUUCCGUGUGGGUAGCGCAGUGAUGUUGUGUCGAGGACCGGGUCCUAGGAAU [Exclusion Tryptophan B GF 28]”, the “apparent KD of K4 kissing-loop reporter” value by setting is: (input ligand: FMN 200 uM) 181 nM; (input ligand: arginine 13.2 mM) 115 nM; (input ligand: none) 143 nM; under setting [1], 160 nM; under setting [2], 77.7 nM.

For “GAACAUAGUAAAGGAUAUUCCUGCCUCGCGCGAUUGAUUAGUGAUGUUGACGAUAUCGCUUUGAGGGAAGAAGGUUAACAAGUCA [theeternabot_exclusion_KL_FMN_B_4]”, the “apparent KD of K4 kissing-loop reporter” value by setting is: (input ligand: FMN 200 uM) 761 nM; (input ligand: arginine 13.2 mM) 659 nM; (input ligand: none) 678 nM; under setting [1], 478 nM; under setting [2], 596 nM.

Consider “GAACGGCGGGCGGCCGCCACUGGUAUACGAGUGAUGUUCGGAUAUACAUAAAAUAAGGUAAUUAACAGGACCGGGUCAGAGCCGG [Tryptophan B Same State; Euphoria Solution]”, for which the “apparent KD of K4 kissing-loop reporter” value was determined as 138 nM (input ligand: FMN 200 uM); 130 nM (input ligand: arginine 13.2 mM); 165 nM (input ligand: none); 142 nM under setting [1]; 118 nM under setting [2].

On to “GAAGGUCAAAGACCUUCGUGCACAUCUGAUACCAGUCGCGAAAGCGACCCUUGGCAGCAGGGCAGUGAUGUUGCCAGUGCACAAA [Omei KL Theo A SS A v4]”, for which the “apparent KD of K4 kissing-loop reporter” value runs as follows: (input ligand: FMN 200 uM) 255 nM; (input ligand: arginine 13.2 mM) 221 nM; (input ligand: none) 273 nM; under setting [1], 168 nM; under setting [2], 253 nM.

On to “GAAUUAAUGUCUUUAAUAUAAUAAUCAGAUACCAGUGAUUUGUGACACCCUUGGCAGCUGUAUAGAGUGAUGUUCUUAUACAUAA [#12 K4 Theophylline A Exclusion]”, for which the “apparent KD of K4 kissing-loop reporter” value by setting is: (input ligand: FMN 200 uM) 352 nM; (input ligand: arginine 13.2 mM) 460 nM; (input ligand: none) 409 nM; under setting [1], 509 nM; under setting [2], 279 nM.

For “GACACACUUUCAGGUGUCCAGUGACUGGAUACCAGCAUGGAAACAUGCCCUUGGCAGCCAGAACUGGAAGUGAUGUUUCCAGUAA [Theo A Mod Design7 (Brourd)]”, the “apparent KD of K4 kissing-loop reporter” value by setting is: (input ligand: FMN 200 uM) 380 nM; (input ligand: arginine 13.2 mM) 241 nM; (input ligand: none) 346 nM; under setting [1], 262 nM; under setting [2], 330 nM.

On to “GACCCAGAAGCACACCUAAAGUUGACAGAUACCAGCGUCGUUUGGCGCCCUUGGCAGCUGGUCAGUGAUGUUGAUAGCUUCGACU [theeternabot_sameState_KL_Theo_A_24]”, for which the “apparent KD of K4 kissing-loop reporter” value by setting is: (input ligand: FMN 200 uM) 197 nM; (input ligand: arginine 13.2 mM) 69.5 nM; (input ligand: none) 181 nM; under setting [1], 89.5 nM; under setting [2], 93.6 nM.

Take “GAUAAAUUGAUGCGUAGUGAUGCACGGGAAGGAGCGCGUUUUUUCGCAGGUAGGUCGCCCGACUGCGCGUUUCGAGUGAUGUUCG [5.)]”: the “apparent KD of K4 kissing-loop reporter” value (input ligand: FMN 200 uM) is 192 nM; the “apparent KD of K4 kissing-loop reporter” value (input ligand: arginine 13.2 mM) was 198 nM; the “apparent KD of K4 kissing-loop reporter” value (input ligand: none) turned out to be 193 nM; the “apparent KD of K4 kissing-loop reporter” value under setting [1] was 197 nM; the “apparent KD of K4 kissing-loop reporter” value under setting [2] turned out to be 172 nM.

On to “GAUAUAGUGAUGUUAUAUACUGAUAGACAACGAGGACCGGUACGGCCGCCACUCGAGAGGGUGAAAAUGGUGAUAAAAUAAUGAU [#03 K4 Tryptophan A Exclusion]”, for which the “apparent KD of K4 kissing-loop reporter” value came to 349 nM (input ligand: FMN 200 uM); 271 nM (input ligand: arginine 13.2 mM); 381 nM (input ligand: none); 322 nM under setting [1]; 274 nM under setting [2].

For the sequence “GAUGGGUAUCAAGGAUAUGCCACUAUUGACUCCUAGAUGGUCAACCAUAUAAUGCGAGUGAUGUUCGCAGAAGGUGAUUCUUAGC [theeternabot_exclusion_KL_FMN_B_24]”, the “apparent KD of K4 kissing-loop reporter” value was 92.3 nM (input ligand: FMN 200 uM); 92.3 nM (input ligand: arginine 13.2 mM); 89.5 nM (input ligand: none); 89.7 nM under setting [1]; 73.2 nM under setting [2].

In the case of “GAUGUAGAGGCGGCCGCCACUAGUGAUGUUAGUGAUGUUUGAUACUGUAUAUAUCGGCGUGUAGAUAGGACCGGGCCUGAUGGAG [dbbdmullin]”, the “apparent KD of K4 kissing-loop reporter” value amounted to 276 nM (input ligand: FMN 200 uM); 165 nM (input ligand: arginine 13.2 mM); 214 nM (input ligand: none); 225 nM under setting [1]; 201 nM under setting [2].

Turning to “GAUUAAUAAGAGGAUACCAGUACUAAUAAAGUACAUUAAUAGUAGAGUGAUGUUCUAUAGUACCCUUGGCAGCUUAGAGUAAGUU [#09 K4 Theophylline B Exclusion]”, the “apparent KD of K4 kissing-loop reporter” value (input ligand: FMN 200 uM) worked out at 131 nM; the “apparent KD of K4 kissing-loop reporter” value (input ligand: arginine 13.2 mM) came out at 200 nM; the “apparent KD of K4 kissing-loop reporter” value (input ligand: none) is 167 nM; the “apparent KD of K4 kissing-loop reporter” value under setting [1] was 210 nM; the “apparent KD of K4 kissing-loop reporter” value under setting [2] was 103 nM.

“GAUUCAGUGAUGUUGGAAGGCGAGCGGGAUACCAGCGGAGACUCACGCCCUUGGCAGCCCACAUAUCCCAGGUAGAUAAUAGAUC [Same State - Theophylline A (Freestyle 7)]”: the “apparent KD of K4 kissing-loop reporter” value (input ligand: FMN 200 uM) turned out to be 201 nM; the “apparent KD of K4 kissing-loop reporter” value (input ligand: arginine 13.2 mM) stood at 123 nM; the “apparent KD of K4 kissing-loop reporter” value (input ligand: none) turned out to be 178 nM; the “apparent KD of K4 kissing-loop reporter” value under setting [1] is 160 nM; the “apparent KD of K4 kissing-loop reporter” value under setting [2] turned out to be 180 nM.

For the sequence “GAUUGUGAUGGAAACAUCGCAAUCUCUGAAGGAGCGCGUGAAAACGCAGGUAGGUCGCAGAACGACAAAGACAGUGAUGUUGUCA [Ex Arginine A K4 5]”, the “apparent KD of K4 kissing-loop reporter” value (input ligand: FMN 200 uM) is 321 nM; the “apparent KD of K4 kissing-loop reporter” value (input ligand: arginine 13.2 mM) was found to be 263 nM; the “apparent KD of K4 kissing-loop reporter” value (input ligand: none) stood at 289 nM; the “apparent KD of K4 kissing-loop reporter” value under setting [1] was found to be 298 nM; the “apparent KD of K4 kissing-loop reporter” value under setting [2] worked out at 234 nM.
